Measured values taken from patent publication US20130210709A1 (ANCHOR THERAPEUTICS, published 2013).
* marks the point of attachment. Palmitoyl = CCCCCCCCCCCCCCCC(=O)*

B1: CXCR4 i1 loop compound 37 (peptide)
peptide: Palmitoyl-MGYQKKLRSMTDKY-NH2
SMILES: CCCCCCCCCCCCCCCC(=O)N[C@@H](CCSC)C(=O)NCC(=O)N[C@@H](Cc1ccc(O)cc1)C(=O)N[C@@H](CCC(N)=O)C(=O)N[C@@H](CCCCN)C(=O)N[C@@H](CCCCN)C(=O)N[C@@H](CC(C)C)C(=O)N[C@@H](CCCNC(=N)N)C(=O)N[C@@H](CO)C(=O)N[C@@H](CCSC)C(=O)N[C@H](C(=O)N[C@@H](CC(=O)O)C(=O)N[C@@H](CCCCN)C(=O)N[C@@H](Cc1ccc(O)cc1)C(N)=O)[C@@H](C)O
B2: CXCR4 i1 loop compound 40 (peptide)
peptide: Palmitoyl-YQKKLRSMTDKYRLHLSV-NH2
SMILES: CCCCCCCCCCCCCCCC(=O)N[C@@H](Cc1ccc(O)cc1)C(=O)N[C@@H](CCC(N)=O)C(=O)N[C@@H](CCCCN)C(=O)N[C@@H](CCCCN)C(=O)N[C@@H](CC(C)C)C(=O)N[C@@H](CCCNC(=N)N)C(=O)N[C@@H](CO)C(=O)N[C@@H](CCSC)C(=O)N[C@H](C(=O)N[C@@H](CC(=O)O)C(=O)N[C@@H](CCCCN)C(=O)N[C@@H](Cc1ccc(O)cc1)C(=O)N[C@@H](CCCNC(=N)N)C(=O)N[C@@H](CC(C)C)C(=O)N[C@@H](Cc1c[nH]cn1)C(=O)N[C@@H](CC(C)C)C(=O)N[C@@H](CO)C(=O)N[C@H](C(N)=O)C(C)C)[C@@H](C)O
B3: CXCR4 i1 loop compound 39 (peptide)
peptide: Palmitoyl-MGYQKKLRSMTDKYRLHL-NH2
SMILES: CCCCCCCCCCCCCCCC(=O)N[C@@H](CCSC)C(=O)NCC(=O)N[C@@H](Cc1ccc(O)cc1)C(=O)N[C@@H](CCC(N)=O)C(=O)N[C@@H](CCCCN)C(=O)N[C@@H](CCCCN)C(=O)N[C@@H](CC(C)C)C(=O)N[C@@H](CCCNC(=N)N)C(=O)N[C@@H](CO)C(=O)N[C@@H](CCSC)C(=O)N[C@H](C(=O)N[C@@H](CC(=O)O)C(=O)N[C@@H](CCCCN)C(=O)N[C@@H](Cc1ccc(O)cc1)C(=O)N[C@@H](CCCNC(=N)N)C(=O)N[C@@H](CC(C)C)C(=O)N[C@@H](Cc1c[nH]cn1)C(=O)N[C@@H](CC(C)C)C(N)=O)[C@@H](C)O
B4: CXCR4 i1 loop compound 36 (peptide)
peptide: Palmitoyl-MGYQKKLRSMTDK-NH2
SMILES: CCCCCCCCCCCCCCCC(=O)N[C@@H](CCSC)C(=O)NCC(=O)N[C@@H](Cc1ccc(O)cc1)C(=O)N[C@@H](CCC(N)=O)C(=O)N[C@@H](CCCCN)C(=O)N[C@@H](CCCCN)C(=O)N[C@@H](CC(C)C)C(=O)N[C@@H](CCCNC(=N)N)C(=O)N[C@@H](CO)C(=O)N[C@@H](CCSC)C(=O)N[C@H](C(=O)N[C@@H](CC(=O)O)C(=O)N[C@@H](CCCCN)C(N)=O)[C@@H](C)O

Target: CXCR4 receptor (human, UniProt P61073 1-352)
Sequence (P61073 whole entry): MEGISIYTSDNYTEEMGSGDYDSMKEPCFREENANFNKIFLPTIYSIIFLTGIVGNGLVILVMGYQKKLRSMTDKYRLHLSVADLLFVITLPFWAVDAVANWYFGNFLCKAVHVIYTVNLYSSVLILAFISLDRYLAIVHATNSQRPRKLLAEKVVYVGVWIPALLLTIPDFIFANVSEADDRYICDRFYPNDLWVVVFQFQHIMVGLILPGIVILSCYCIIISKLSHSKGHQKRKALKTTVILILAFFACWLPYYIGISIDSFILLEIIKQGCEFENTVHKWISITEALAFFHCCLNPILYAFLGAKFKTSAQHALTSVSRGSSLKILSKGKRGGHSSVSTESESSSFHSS
Experiment: cell-based or functional assay

Row | Binder | AUC (% of), CHTX, CEM, 1.0 uM [%] | AUC (% of), CHTX, SUP B-15, 1.0 uM [%] | Max (% of), CHTX, CEM, 1.0 uM [%] | Max (% of), CHTX, SUP B-15, 1.0 uM [%] | Peak Ratio, CHTX, CEM, 1.0 uM | Peak Ratio, CHTX, SUP B-15, 1.0 uM | Peak Ratio, CHTX, SUP B15, 1.0 uM
1 | B1 | 92.3 | 63.5 | 97.8 | 91.1 | 0.04 | 0.2 | –
2 | B2 | – | 71.9 | – | 71.2 | – | 0.2 | –
3 | B3 | 37.5 | 47.4 | 59.7 | 37.6 | 0.04 | 0.2 | –
4 | B4 | 102 | – | 119 | – | 0.2 | – | 0.2
